Results reported in PMC11609597, “Characterization of two bacterial tyrosinases from the halophilic bacterium Hahella sp. CCB MM4 relevant for phenolic compounds oxidation in wetlands” (FEBS Open Bio, 2024).
Each block holds one molecule with its values, some of them ahead of it.

Key:
cleaved-HcTyr1 = target: T1, cleaved-HcTyr1 (Hahella sp. CCB-MM4, UniProt A0A261GRE4); experiment: MBTH o-quinone trapping, absorbance at […] nm, Michaelis-Menten fit; type: biochemical; settings: 50 mM potassium phosphate pH 7.0, 25 °C, 5 mM MBTH, 2% N,N'-dimethylformamide, Cu(II) 2:1; LID self-cleaved form; diphenolase
T1 construct: gene BTA51_09820; TYR domain after self-cleavage of the C-terminal LID domain during storage (over 2 months, 4 °C); used without further purification; expressed in E. coli BL21(DE3) with C-terminal His tag; Cu(II) added 2:1

purified protein [1] = substrate: N[C@@H](Cc1ccc(O)c(O)c1)C(=O)O; experiment: purified protein; type: biochemical, Hahella sp. CCB-MM4; settings: 5 mM MBTH, 2% N,N'-dimethylformamide
purified protein [2] = substrate: N[C@@H](Cc1ccc(O)cc1)C(=O)O; experiment: purified protein; type: biochemical, Hahella sp. CCB-MM4; settings: 5 mM MBTH, 2% N,N'-dimethylformamide
[3] = 50 mM sodium citrate pH 5.5, 25 °C, Cu(II) 2:1, diphenolase
[4] = 50 mM sodium citrate pH 5.5, 25 °C, Cu(II) 2:1, monophenolase
[5] = 50 mM potassium phosphate pH 7.0, 25 °C, Cu(II) 2:1, latent form, diphenolase
[6] = 50 mM potassium phosphate pH 7.0, 25 °C, Cu(II) 2:1, latent form, monophenolase

Km (cleaved-HcTyr1): 347 ± 7 µM
Molecule: N[C@@H](Cc1ccc(O)c(O)c1)C(=O)O [L-DOPA]

B1: HcTyr2 (Hahella sp. CCB-MM4) (protein)
chain: MGDSSELNVRRSVRDLQAEYDRGNRKPLEDLIRAWKGIQELPPDDKRSFFILGGYHGEPFDYRNAVDALPPDDIYTYWGGWCNHGNVLFPTWHRIYILKLEEALQSIVPGVTLPFWDETSEETVKKGIPDVLTREYFELDGENIKNPLYSYTLPLSLSDNVPGDNKAYEKPAGYETVRYPLSGLVGTPEARAATAKHNAKYPNPIENTQLLNKNIIAWLHGSGKDEEGPTTTDPNPKGRGVKWMYEKCLSAPNYTVFSNTTSAGQWNLDHPAKSVVALEQPHNDVHLAVGGFDIPGQGESGQVADANGDMGENNTAALDPIFFFHHCNVDRMFWLWQKQNGFINKLEVITGYYGTNSSDSQGPTPGIPPGTPLDLNTPLNPFIKDEFGNPFTSMDCINIEEQLGYTYGPGSLDEVPKPEPITGGSTKKLTVRGINRGLFDGSFVIRAYASVPDAQGQLTEYYLGDHAVLSRRNVVKCANCLTHLEVIAHFPLDTLSADLVDKAEYWITIQHRGHSKRMKVDKDTGQSEKALLAQRAELPEKLKYSISVTD
notes: full length 550 aa with LID domain attached, C-terminal His tag (pET22b), E. coli BL21(DE3), about 61 kDa; Cu(II) added 2:1
Km (purified protein [1]; [3]): 196 ± 6 µM
kcat (purified protein [1]; [3]): 9.94 ± 0.0 s⁻¹
Km (purified protein [2]; [4]): 160 ± 5 µM
kcat (purified protein [2]; [4]): 6.12 s⁻¹

B2: HcTyr1 (latent-HcTyr1) (Hahella sp. CCB-MM4) (protein)
chain: MKTRQNVYELKDDTLSWYSRAVEEMKSRDINDPTSWWYQGAIHGYATYPSALTYWHDATGYPPSQQTVNSGFWNRCQHGTWYFLPWHRMYLFYFEEIVAKAIRDMGGPADWTLPYWNYCEAYNTSASPSNQQQALQIPPEFGSSQGPNADFASLWIKNRRNYVLNKNNVNPWPAMNEAEFTNSGGDISFGGGVTGFAHSGGQTGQLESLPHNVVHTDINGAMGNPDTAALDPIFWLHHANIDRLWQVWLAQAGRSNPVVNAWKDFRFKFHDANGQPVEIAVKDVETTQLLGYVYTPAFPLSSTTPARRSVPAMDVVGATSASFSVGDHMAPLDLTMVPQPARGARLLAARGGDEKRTILRISNVKGKGATSPIDLFITNRDNEEGNEENFVGCIGLFGLENASTPSVESDGSGLNFAIDISDTINKLRQRDDWDEDNIRVQLIPQSKQDSDVEINVGRVSLHSEID
notes: full length 466 aa with LID domain (latent), C-terminal His tag (pET22b), E. coli BL21(DE3), about 52 kDa, monomer; Cu(II) added 2:1
Km (purified protein [1]; [5]): 370 ± 5 µM
kcat (purified protein [1]; [5]): 1.00 ± 0.0 s⁻¹
Km (purified protein [2]; [6]): 187 ± 35 µM
kcat (purified protein [2]; [6]): 0.71 ± 0.03 s⁻¹
